Changes are numbered by the printed parent chain.
B1: 27D10 (antibody, V domains shown)
VH: QLQLQESGPGLVKPSETLSLTCTVSGGSISSRSDYWGWIRQPPGKGLEWIGTIYYSGSTFYNPSLKSRVTISVDTSKNQFSLKLSSVTAADTAVYYCARQQLVLYYFDYWGQGTLVTVSS
VL: not shown
notes: Fully human monoclonal antibody from a XenoMouse hybridoma (IgG2 or IgG4 strain), purified
B2: 29D4 (antibody, V domains shown)
VH: B1 VH with D34N, S58H, F60Y, T70S, A90T, V94L, D108E
VL: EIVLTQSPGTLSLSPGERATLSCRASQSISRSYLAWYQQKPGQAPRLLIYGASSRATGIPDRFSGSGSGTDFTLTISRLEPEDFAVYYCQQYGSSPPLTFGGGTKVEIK
notes: as for B1

How the values were obtained:
human KDR [1] = target: T1, human KDR (human, UniProt P35968 20-1356); assay: cell-based or functional assay
T1 sequence (P35968 20-1356): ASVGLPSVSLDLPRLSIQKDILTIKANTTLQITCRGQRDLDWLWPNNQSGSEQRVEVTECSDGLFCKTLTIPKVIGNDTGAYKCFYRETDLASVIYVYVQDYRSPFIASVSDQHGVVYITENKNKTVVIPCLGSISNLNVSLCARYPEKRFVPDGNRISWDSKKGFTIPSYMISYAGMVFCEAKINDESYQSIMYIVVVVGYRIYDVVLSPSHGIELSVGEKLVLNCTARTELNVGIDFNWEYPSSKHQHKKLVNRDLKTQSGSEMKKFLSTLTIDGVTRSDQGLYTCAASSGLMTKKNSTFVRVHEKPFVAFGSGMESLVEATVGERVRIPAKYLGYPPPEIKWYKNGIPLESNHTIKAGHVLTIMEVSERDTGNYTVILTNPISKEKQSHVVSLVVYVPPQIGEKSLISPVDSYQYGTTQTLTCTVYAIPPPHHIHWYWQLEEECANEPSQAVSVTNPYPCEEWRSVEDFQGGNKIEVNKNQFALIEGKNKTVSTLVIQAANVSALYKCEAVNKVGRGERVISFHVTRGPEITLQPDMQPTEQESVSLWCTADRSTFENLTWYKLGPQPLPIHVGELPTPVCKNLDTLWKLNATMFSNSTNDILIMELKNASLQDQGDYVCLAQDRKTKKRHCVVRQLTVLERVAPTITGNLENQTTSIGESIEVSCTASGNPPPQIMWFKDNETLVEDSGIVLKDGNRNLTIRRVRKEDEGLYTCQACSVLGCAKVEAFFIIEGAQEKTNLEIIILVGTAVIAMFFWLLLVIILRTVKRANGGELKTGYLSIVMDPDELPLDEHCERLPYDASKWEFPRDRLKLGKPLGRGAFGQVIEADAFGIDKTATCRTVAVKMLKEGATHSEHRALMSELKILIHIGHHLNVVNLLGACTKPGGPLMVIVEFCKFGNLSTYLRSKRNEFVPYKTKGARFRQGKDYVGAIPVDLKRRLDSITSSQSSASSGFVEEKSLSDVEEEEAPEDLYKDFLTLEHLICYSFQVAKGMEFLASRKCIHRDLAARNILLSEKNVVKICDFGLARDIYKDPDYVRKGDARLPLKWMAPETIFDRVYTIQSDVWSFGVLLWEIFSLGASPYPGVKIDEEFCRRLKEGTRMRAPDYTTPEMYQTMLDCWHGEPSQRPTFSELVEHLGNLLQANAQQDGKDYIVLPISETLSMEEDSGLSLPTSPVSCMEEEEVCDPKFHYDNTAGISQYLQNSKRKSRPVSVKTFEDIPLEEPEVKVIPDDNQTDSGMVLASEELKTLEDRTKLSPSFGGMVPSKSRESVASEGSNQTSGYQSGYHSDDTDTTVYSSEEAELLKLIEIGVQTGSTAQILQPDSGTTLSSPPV

human KDR [2] = target: T1, human KDR; assay: cell-based or functional assay; remark: listed apart in the source
[3] = target: T2, mouse KDR (Flk-1)/Fc (Cat. #443-KD/CF, R&D Systems, Inc.) (mouse, UniProt P35918 20-762); assay: ELISA, Flk-1 coat 5 ug/mL, antibody 1 ug/mL
T2 construct: Bought reagent; also called mouse VEGFR2; KDR mouse ortholog; not shown: Fc of the bought fusion protein
T2 sequence (P35918 20-762 limits assumed): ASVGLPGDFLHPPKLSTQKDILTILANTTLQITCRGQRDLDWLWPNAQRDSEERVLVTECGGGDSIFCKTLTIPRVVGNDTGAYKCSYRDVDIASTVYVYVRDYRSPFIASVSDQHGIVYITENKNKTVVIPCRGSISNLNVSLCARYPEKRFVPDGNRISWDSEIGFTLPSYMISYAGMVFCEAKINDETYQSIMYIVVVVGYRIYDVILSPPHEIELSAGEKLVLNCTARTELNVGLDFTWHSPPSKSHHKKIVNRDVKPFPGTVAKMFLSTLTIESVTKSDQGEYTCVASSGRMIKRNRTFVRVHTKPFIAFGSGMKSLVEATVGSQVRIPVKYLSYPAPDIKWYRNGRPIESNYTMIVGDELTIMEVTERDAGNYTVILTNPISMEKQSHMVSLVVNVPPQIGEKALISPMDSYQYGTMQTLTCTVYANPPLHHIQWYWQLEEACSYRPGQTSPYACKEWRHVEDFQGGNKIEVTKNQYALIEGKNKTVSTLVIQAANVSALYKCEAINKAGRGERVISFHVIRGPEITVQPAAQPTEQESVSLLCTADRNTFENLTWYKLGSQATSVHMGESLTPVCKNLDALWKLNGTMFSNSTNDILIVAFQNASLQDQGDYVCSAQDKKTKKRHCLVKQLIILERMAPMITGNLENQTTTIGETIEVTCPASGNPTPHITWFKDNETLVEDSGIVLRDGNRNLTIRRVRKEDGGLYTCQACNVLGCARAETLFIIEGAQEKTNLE
Procedure: (§1) The cross-reactivity of purified antibodies was tested against KDR mouse ortholog KDR mouse ortholog (mouse VEGFR2, or Flk-1) and human VEGFR1 (Flt-1). The ability of the antibodies to bind soluble KDR Ig4-7 domain and to the entire KDR extracellular domain (ECD) was also measured.
(§2) Cross-reactivity experiments were carried out and measured using an ELISA based assay as described in Example 6. […] Antibody controls included IgG1 and IgG4 (Sigma-Aldrich, Cat. #15154 and #14639, respectively).

[4] = target: T2, mouse KDR (Flk-1)/Fc (Cat. #443-KD/CF, …); assay: ELISA, Flk-1 coat 5 ug/mL, antibody 0.1 ug/mL
Procedure: as §1, §2

[5] = target: T3, whole KDR-ECD (Cat. # 676490, Calbiochem) (human, UniProt P35968 20-764); assay: ELISA, KDR-ECD coat 5 ug/mL, antibody 1 ug/mL
T3 construct: extracellular domain; Bought soluble protein; also called soluble KDR; VEGF Receptor 2 D1-7
T3 sequence (P35968 20-764): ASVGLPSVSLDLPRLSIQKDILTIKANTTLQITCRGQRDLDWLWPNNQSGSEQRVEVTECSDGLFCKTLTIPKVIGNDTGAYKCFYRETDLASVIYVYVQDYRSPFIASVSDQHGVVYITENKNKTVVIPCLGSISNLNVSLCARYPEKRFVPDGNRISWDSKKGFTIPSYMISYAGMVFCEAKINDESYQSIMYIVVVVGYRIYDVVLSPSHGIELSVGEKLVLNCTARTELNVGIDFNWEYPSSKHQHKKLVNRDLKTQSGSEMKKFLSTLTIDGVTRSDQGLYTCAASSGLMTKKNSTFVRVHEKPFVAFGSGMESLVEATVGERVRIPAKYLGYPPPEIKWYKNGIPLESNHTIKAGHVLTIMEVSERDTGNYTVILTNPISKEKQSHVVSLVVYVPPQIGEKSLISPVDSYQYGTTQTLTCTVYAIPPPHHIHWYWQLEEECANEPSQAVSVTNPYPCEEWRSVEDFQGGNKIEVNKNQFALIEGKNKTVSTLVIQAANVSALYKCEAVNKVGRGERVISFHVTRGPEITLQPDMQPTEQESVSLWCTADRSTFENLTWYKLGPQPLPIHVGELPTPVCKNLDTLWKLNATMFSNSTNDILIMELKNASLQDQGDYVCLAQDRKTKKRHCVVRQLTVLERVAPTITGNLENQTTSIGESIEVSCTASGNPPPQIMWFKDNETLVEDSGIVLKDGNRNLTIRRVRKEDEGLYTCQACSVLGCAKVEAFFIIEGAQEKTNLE
Procedure: as §1, §2

[6] = target: T2, mouse KDR (Flk-1)/Fc (Cat. #443-KD/CF, …); assay: ELISA, Flk-1 coat 5 ug/mL, antibody 0.01 ug/mL
Procedure: as §1, §2

[7] = target: T3, whole KDR-ECD (Cat. # 676490, …); assay: ELISA, KDR-ECD coat 5 ug/mL, antibody 0.1 ug/mL
Procedure: as §1, §2

[8] = target: T3, whole KDR-ECD (Cat. # 676490, …); assay: ELISA, KDR-ECD coat 5 ug/mL, antibody 0.01 ug/mL
Procedure: as §1, §2

soluble KDR Ig4-7 domain [9] = target: T4, soluble KDR Ig4-7 domain (human, UniProt P35968 328-764); assay: ELISA, KDR Ig4-7 coat (1:1 diln.), antibody 1 ug/mL
T4 construct: domain: Ig4-7 domain; also called b-KDRIg4-7-myc-his; Ig4-7 domain of KDR; not shown: myc-his tag of the pSecTag construct
T4 sequence (P35968 328-764): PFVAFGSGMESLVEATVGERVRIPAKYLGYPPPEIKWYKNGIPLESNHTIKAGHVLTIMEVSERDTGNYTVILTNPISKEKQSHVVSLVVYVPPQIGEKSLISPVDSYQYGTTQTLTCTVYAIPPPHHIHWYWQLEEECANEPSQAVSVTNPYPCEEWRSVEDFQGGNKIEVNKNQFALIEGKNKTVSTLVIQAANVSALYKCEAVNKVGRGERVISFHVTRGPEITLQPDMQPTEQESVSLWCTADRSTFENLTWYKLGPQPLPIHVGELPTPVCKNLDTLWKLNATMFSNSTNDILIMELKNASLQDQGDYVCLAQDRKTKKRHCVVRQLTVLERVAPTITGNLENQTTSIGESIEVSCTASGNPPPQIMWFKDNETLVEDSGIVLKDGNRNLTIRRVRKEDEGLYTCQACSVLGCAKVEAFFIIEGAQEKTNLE
Procedure: as §1, §2

soluble KDR Ig4-7 domain [10] = target: T4, soluble KDR Ig4-7 domain; assay: ELISA, KDR Ig4-7 coat (1:1 diln.), antibody 0.1 ug/mL
Procedure: as §1, §2

cynomolgus KDR = target: T5, cynomolgus KDR (cynomolgus monkey, UniProt A0A2K5VE63 20-1356); assay: FACS on Cyno KDR/293T transfectants, antibody 5 ug/mL
T5 construct: whole, on cells; also called Cyno KDR
T5 sequence (A0A2K5VE63 entry or part of it): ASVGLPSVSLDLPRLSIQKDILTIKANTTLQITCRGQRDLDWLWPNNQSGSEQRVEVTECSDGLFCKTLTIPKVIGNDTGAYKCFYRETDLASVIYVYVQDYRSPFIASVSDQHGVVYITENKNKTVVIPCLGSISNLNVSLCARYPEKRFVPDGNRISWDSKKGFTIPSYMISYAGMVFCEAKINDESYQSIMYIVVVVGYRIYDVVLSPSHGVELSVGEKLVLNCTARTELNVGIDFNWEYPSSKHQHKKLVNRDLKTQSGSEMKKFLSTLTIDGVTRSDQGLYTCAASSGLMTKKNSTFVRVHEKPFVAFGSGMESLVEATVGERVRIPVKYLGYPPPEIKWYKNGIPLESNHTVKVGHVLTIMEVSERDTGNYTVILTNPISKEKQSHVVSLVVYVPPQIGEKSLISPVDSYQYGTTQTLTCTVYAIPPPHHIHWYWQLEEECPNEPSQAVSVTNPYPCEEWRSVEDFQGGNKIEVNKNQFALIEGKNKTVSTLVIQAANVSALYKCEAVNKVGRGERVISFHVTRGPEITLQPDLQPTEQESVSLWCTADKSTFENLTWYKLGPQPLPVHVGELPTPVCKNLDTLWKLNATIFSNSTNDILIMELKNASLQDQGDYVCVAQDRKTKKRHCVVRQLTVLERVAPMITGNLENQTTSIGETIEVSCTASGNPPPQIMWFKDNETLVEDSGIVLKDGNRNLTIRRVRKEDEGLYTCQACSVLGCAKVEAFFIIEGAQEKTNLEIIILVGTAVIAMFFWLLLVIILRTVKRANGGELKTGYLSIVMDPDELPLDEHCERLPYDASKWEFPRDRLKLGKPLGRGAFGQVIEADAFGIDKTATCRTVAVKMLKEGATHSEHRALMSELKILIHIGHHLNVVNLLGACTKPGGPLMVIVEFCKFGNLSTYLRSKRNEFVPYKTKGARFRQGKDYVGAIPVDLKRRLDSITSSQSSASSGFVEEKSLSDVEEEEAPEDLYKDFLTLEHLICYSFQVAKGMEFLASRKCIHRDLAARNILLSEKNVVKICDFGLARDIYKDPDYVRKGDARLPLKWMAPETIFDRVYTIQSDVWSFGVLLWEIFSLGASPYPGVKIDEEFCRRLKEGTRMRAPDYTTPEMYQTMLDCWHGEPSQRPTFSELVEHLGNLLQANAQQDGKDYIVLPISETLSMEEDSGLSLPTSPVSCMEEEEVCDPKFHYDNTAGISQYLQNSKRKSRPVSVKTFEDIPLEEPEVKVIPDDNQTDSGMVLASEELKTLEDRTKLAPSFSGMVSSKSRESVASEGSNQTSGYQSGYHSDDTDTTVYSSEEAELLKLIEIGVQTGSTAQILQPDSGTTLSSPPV
Procedure: The binding of purified antibodies to cell-bound cynomolgus KDR (with parental cells as negative control) was tested by FACS analysis in this assay.
Cynomolgus KDR was cloned in 3 pieces. One piece was PCR amplified from cynomolgus lung cDNA, and the remaining two pieces were PCR amplified from cynomolgus kidney cDNA. The three PCR products were inserted into pCR3.1 Bid vector. […] Transfected cells were seeded at 50,000 cells/well and incubated with 5 μg/mL of candidate antibody for one hour at 4° C. The cells were then washed and incubated with secondary antibody (Cy5-conjugated goat anti-human antibody, or Cy5-conjugated rabbit anti-goat antibody, plus 7-Amino-Actinomycin (7AAD)) for 15 minutes at 4° C. Binding between cynomolgus KDR and purified antibody was detected by FACS analysis.

soluble KDR Ig4-7 domain [11] = target: T4, soluble KDR Ig4-7 domain; assay: ELISA, KDR Ig4-7 coat (1:1 diln.), antibody 0.01 ug/mL
Procedure: as §1, §2

human KDR [12] = target: T1, human KDR; assay: FACS titration of purified antibody on HUVEC cells (FACS Kd)
Procedure: The binding affinities of the purified antibodies for endogenously-expressed KDR in HUVEC cells was measured. HUVEC cells were seeded at 150,000 cells/well and incubated with titrations of purified antibody for 4 hours at 4° C. The cells were then washed and incubated with goat anti-human IgG-Fc-Cy5+5 μg/mL 7-Amino-Actinomycin (7AAD) for 30 minutes at 4° C. Bound KDR was detected using FACS analysis.

human KDR [13] = target: T1, human KDR; assay: FACS competition on 293T/human KDR transfectants; antibody 5 ug/mL first, then competitor VEGF165 50 ng/mL; bound VEGF165 detected
Procedure: (§3) Transfected cells were then seeded at 50,000 cells/well and incubated with 5 μg/mL of candidate antibody for one hour at 4° C. […] After washing, the cells were incubated with Cy5-conjugated rabbit anti-goat antibody plus 7AAD for 15 minutes at 4° C.

human KDR [14] = target: T1, human KDR; assay: FACS competition on 293T/human KDR transfectants; antibody 5 ug/mL first, then competitor VEGF165 50 ng/mL; inhibition of VEGF binding
Procedure: as §3

human KDR [15] = target: T1, human KDR; assay: cell-based or functional assay; remark: listed apart in the source

Row | Binder | KDR tyrosine phosphorylation in HUVEC, EC50 (nM), Average (human KDR [1]) [nM] | KDR tyrosine phosphorylation in HUVEC, EC50 (nM), N = 1 (human KDR [1]) [nM] | KDR tyrosine phosphorylation in HUVEC, EC50 (nM), N = 2 (human KDR [1]) [nM] | KDR tyrosine phosphorylation in HUVEC, Maximum Inhibition at 100 nM (% Inhibition), Average (human KDR [1]) [%] | KDR tyrosine phosphorylation in HUVEC, Maximum Inhibition at 100 nM (% Inhibition), N = 1 (human KDR [1]) [%] | KDR tyrosine phosphorylation in HUVEC, Maximum Inhibition at 100 nM (% Inhibition), N = 2 (human KDR [1]) [%] | HUVEC survival, Maximum Inhibition at 50 nM (% Inhibition), Average (human KDR [2]) [%] | HUVEC survival, Maximum Inhibition at 50 nM (% Inhibition), N = 1 (human KDR [2]) [%] | HUVEC survival, Maximum Inhibition at 50 nM (% Inhibition), N = 2 (human KDR [2]) [%] | ELISA reading [3] | ELISA reading [4] | ELISA reading [5] | ELISA reading [6] | ELISA reading [7] | ELISA reading [8] | ELISA reading (soluble KDR Ig4-7 domain [9]) | ELISA reading (soluble KDR Ig4-7 domain [10]) | FACS Geometric Mean Fluorescence (cynomolgus KDR) | ELISA reading (soluble KDR Ig4-7 domain [11]) | Kd (human KDR [12]) [nM] | also measured
1 | B1 | 1.9 | 1.6 | 2.3 | 72 | 70 | 75 | 89 | 93 | 85 | 2.14 | 1.48 | 1.36 | 0.537 | 0.187 | 0.087 | 0.076 | 0.086 | 89.4 | 0.073 | 1.9 | FACS Geometric Mean Fluorescence (bound VEGF165) (human KDR [13]): 111; % Inhibition (human KDR [14]): 15%
2 | B2 | 1.9 | 2 | 1.9 | 75 | 74 | 77 | 92 | 89 | 95 | 3.29 | 2.59 | 2.15 | 1.17 | 0.096 | 0.089 | 0.082 | 0.078 | 115 | 0.08 | 1 | 6-keto Prostaglandin F1α release, EC50 (nM), Average (human KDR [15]): 3.2 nM; 6-keto Prostaglandin F1α release, EC50 (nM), N = 1 (human KDR [15]): 3.2 nM; 6-keto Prostaglandin F1α release, EC50 (nM), N = 2 (human KDR [15]): 3.2 nM; 6-keto Prostaglandin F1α release, Maximum Inhibition (% Inhibition), Average (human KDR [15]): 56%; 6-keto Prostaglandin F1α release, Maximum Inhibition (% Inhibition), N = 1 (200 nM) (human KDR [15]): 45%; 6-keto Prostaglandin F1α release, Maximum Inhibition (% Inhibition), N = 2 (333 nM) (human KDR [15]): 67%; FACS Geometric Mean Fluorescence (bound VEGF165) (human KDR [13]): 116; % Inhibition (human KDR [14]): 11%

— patent US20100260765A1 (AstraZeneca / MedImmune, published 2010)
